Assay results as given in patent US10202584B2, “Red-shifted luciferase-luciferin pairs for enhanced bioluminescence” (The Regents of the University of California, priority 2016, dated 2019).

System: HEK 293T cells
Assay: Bioluminescence relative to FLuc with P2A bicistronic vectors in HEK 293T cells
Format: cell-based, Human
Conditions: 10,000 HEK 293T cells, 30 μM substrates, first 2 min integrated
From the text: FIG. 12 is a panel examining the impact of luciferase protein levels on bioluminescence intensities. (12a) Western blot analysis of HEK 293T cells expressing luciferases with C-terminal c-Myc tags. The relative proteins levels quantified from individual bands are shown in parentheses. These enzymes were expressed at different levels but the differences were within 3-fold. […] Under this condition, two luciferases in the same vectors are expected to be expressed near-stoichiometrically.

B1: NanoLuc: luciferase engineered from a 19 kDa domain of Oplophorus luciferase (SEQ ID NO: 1) (protein)
chain: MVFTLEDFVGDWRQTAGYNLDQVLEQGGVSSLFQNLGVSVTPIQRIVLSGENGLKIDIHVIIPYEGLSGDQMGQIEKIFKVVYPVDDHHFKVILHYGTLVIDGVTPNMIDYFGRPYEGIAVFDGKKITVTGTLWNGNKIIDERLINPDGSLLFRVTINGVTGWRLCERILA
modifications: Engineered mutant of Oplophorus gracilirostris polypeptide
Q: How did the “bioluminescence relative to FLuc, P2A bicistronic vectors” value turn out when B1 was run?
A: Large bioluminescence enhancements
